Experimental data taken from the supplement of paper PMC6755084.

B1: F1*; the commonest letter at each place (parent)
chain: GAGACCGCAACTGAAAAGTTGTTATCACTTGTCGTAAGACACTTTGGATGGGTTGAAGTTCTGCACGTAGAAGCAAAAGGC

Variants of: B1
Assay: fraction ligated after 30 min (ligated reads / total reads); higher = more ligase activity
Details: with F1*sub RNA substrate (template-directed ligation), 42 °C
In short: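 The ligase ribozyme variants were produced by PCR amplification of oligo-pool templates, T7 transcription and purification on gel. Their ligated and unligated forms were gel-separated, then reverse transcribed with barcoded primers before MiSeq sequencing. Core bases were filtered at a quality of ≥20, and fraction ligated per variant was ligated reads over total reads.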

In order of rising fraction ligated:
1. G31A G50A  0.025
2. G31A G50C  0.0295
3. G31C G50C  0.0327
4. G31C T45G  0.0355
5. G31C T45C  0.0406
6. G31C G50A  0.057
7. G31C T49A  0.0574
8. T30G G47C  0.0588
9. G31C T49C  0.0658
10. G31C T49G  0.0675
11. G31C G50T  0.108
12. G31C G55C  0.14
13. T30G G47T  0.15
14. G31C A56C  0.155
15. G31A G50T  0.195
16. G31A G55C  0.205
17. G31T A56C  0.221
18. T30C A48G  0.329
19. T30G G50C  0.342
20. T30C A48T  0.346
21. G31C A41C  0.492
22. G31C T45A  0.492
23. T30G G50A  0.513
24. G31A G46C  0.524
25. G31T A41C  0.586
26. G31A A36G  0.595
27. G31C A56G  0.607
28. T30G G47A  0.654
29. G31T A56G  0.679
30. G31C A56T  0.694
31. T30G G50T  0.712
32. T30C T32C  0.726
33. G31C G46C  0.732
34. G31C A41T  0.732
35. T30C A56T  0.749
36. G31T A56T  0.755
37. T30C A48C  0.757
38. T30G A56G  0.757
39. G31T A41G  0.761
40. G31A T35G  0.763
41. T30C A56C  0.763
42. T30C A39T  0.764
43. T30C A56G  0.764
44. T30C A39C  0.765
45. G31A G55T  0.767
46. T30C T43G  0.768
47. G31C T35C  0.769
48. G31A G34C  0.769
49. G31C A37C  0.769
50. G31T A36C  0.769
51. G31T A41T  0.772
52. G31C T44A  0.775
53. G31T C33T  0.777
54. G31C A39G  0.777
55. G31A G46T  0.777
56. G31C G34T  0.778
57. G31C A39T  0.778
58. G31C A41G  0.779
59. G31C A39C  0.779
60. G31C T32G  0.78
61. G31C G34A  0.78
62. G31T A37C  0.78
63. T30C G38C  0.78
64. G31C T44G  0.781
65. T30C A39G  0.782
66. G31C G46T  0.784
67. G31T A36T  0.785
68. T30G A56C  0.786
69. T30C T43C  0.788
70. G31C  0.79
71. G31C A37T  0.79
72. G31C C40T  0.791
73. G31C T44C  0.792
74. G31T A37G  0.792
75. T30G G55C  0.793
76. G31T  0.793
77. G31C C40A  0.793
78. T30A T43C  0.794
79. T30C A37C  0.794
80. G31C G55T  0.794
81. T30C C42T  0.794
82. T30C G38T  0.795
83. T30G G34C  0.795
84. G31C T32C  0.796
85. G31A G38A  0.796
86. G31C T35A  0.796
87. G31A G34T  0.796
88. G31C C40G  0.796
89. T30G G34T  0.796
90. G31A T43C  0.797
91. G31C G46A  0.797
92. T30G A56T  0.797
93. T30C G38A  0.797
94. G31A G38C  0.798
95. G31A G38T  0.798
96. G31T A36G  0.798
97. G31A A36C  0.8
98. T30A T43G  0.8
99. G31C T35G  0.8
100. G31A T44C  0.801
101. G31C T32A  0.803
102. G31C G34C  0.804
103. G31A G34A  0.804
104. T30G G38C  0.805
105. T30C A37T  0.805
106. G31A T43G  0.807
107. G31T C33G  0.808
108. T30C T32G  0.809
109. T30C T43A  0.809
110. G31A T32A  0.809
111. G31C G55A  0.809
112. T30G C40G  0.81
113. G31A T32C  0.811
114. G31A  0.812
115. G31A T35C  0.813
116. T30G T35C  0.813
117. G31A A37C  0.813
118. G31A T43A  0.815
119. G31T A37T  0.815
120. T30C T32C A39G A41G  0.816
121. T30G G38T  0.816
122. T30C T32A  0.817
123. T30G C42T  0.817
124. G31C A37G  0.817
125. T30C C42A  0.817
126. T30C C42G  0.817
127. T30A G55T  0.818
128. G31A T44A  0.818
129. T30G G55T  0.819
130. G31A T44G  0.819
131. T30G C40T  0.819
132. T30G A41T  0.82
133. G31A T35A  0.823
134. G31A G55A  0.823
135. T30C C33A  0.824
136. T30G G34A  0.825
137. G31A A37T  0.826
138. G31A A36T  0.827
139. G31A A37G  0.827
140. T30A T43A  0.828
141. T30G G31C T32G C33G G38C A39C C40G A41C  0.828
142. T30C A37G  0.83
143. G31T C33A  0.831
144. T30G C42A  0.831
145. T30C T32G C33G G38C A39C A41G  0.831
146. T30G C42G  0.834
147. T30G A41C  0.834
148. T30C C33G  0.837
149. G31A T32G  0.837
150. T30C G31C T32G C33G G38C A39C C40G A41G  0.839
151. T30C C33T  0.84
152. T30G A41G  0.84
153. T30G G38A  0.843
154. T30G T35A  0.845
155. T30G G31C  0.845
156. G31A G46A  0.845
157. T30G G55A  0.846
158. T30G G31C T32C A39G C40G A41C  0.846
159. T30G T35G  0.847
160. T30G A37C  0.849
161. T30C T32G A39C A41G  0.852
162. T30G A37G  0.852
163. T30G G31A  0.853
164. T30G G31T  0.853
165. T30G C40A  0.854
166. T30G A37T  0.86
167. T30C G31C T32G A39C C40G A41G  0.862
